Assay results as given in patent US20230235004A1 (published 2023).
Numbering of substitutions follows the chain as printed.

B1: MAdCAM Antibody Table 2 clone 38 (antibody, V domains shown)
VH: QVQLVQSGAEVKKPGASVKVSCKASGYTFTDYFLHWVRQAPGQGLEWMGWMNPTSGNTGYAQKFQGRVTMTRDTSTSTVYMELSSLRSEDTAVYYCAREGEGSGFDYWGQGTLVTVSS
VL: DIQMTQSPSSLSASVGDRVTITCRASQGINSWLAWYQQKPGKAPKLLIYDASNLETGVPSRFSGSGSGTDFTLTISSLQPEDFATYYCQQSYSTPLTFGGGTKVEIK
notes: IgG format
B2: MAdCAM Antibody Table 2 clone 39 (antibody, V domains shown)
VH: QVQLVQSGAEVKKPGASVKVSCKASGYTFTSYYMHWVRQAPGQGLEWMAWMNPNSGNTGYAQKFQGRVTMTRDTSTSTVYMELSSLRSEDTAVYYCARDYDFWSGSLGYWGQGTLVTVSS
VL: B1 VL with N30S, S31N, W32Y, D50A, N53S, E55Q, T56S, L96W, G100Q
notes: IgG format
B3: MAdCAM Antibody Table 2 clone 41 (antibody, V domains shown)
VH: QVQLVQSGAEVKKPGASVKVSCKASGYTFTSYYMHWVRQAPGQGLEWMGIINPSGGSTSYAQKFQGRVTMTRDTSTSTVYMELSSLRSEDTAVYYCARDTGYSYGRYYYYGMDVWGQGTLVTVSS
VL: B1 VL with G28S, N30G, S31R, E55Q, T56S, T94I, L96I, G100Q
notes: IgG format
B4: MAdCAM Antibody Table 2 clone 42 (antibody, V domains shown)
VH: QVQLVQSGAEVKKPGASVKVSCKASGYTLTDYYMHWVRQAPGQGLEWMGIINPSGGSTSYAQKFQGRVTMTRDTSTSTVYMELSSLRSEDTAVYYCAREEYSSSSGYFDYWGQGTLVTVSS
VL: B1 VL with N30S, D50A, N53S, E55Q, T56S, G100Q
notes: IgG format
B5: MAdCAM Antibody Table 2 clone 43 (antibody, V domains shown)
VH: QVQLVQSGAEVKKPGASVKVSCKASGYTFTSYGISWVRQAPGQGLEWMGWMHPKSGDTGLTQKFQGRVTMTRDTSTSTVYMELSSLRSEDTAVYYCARDTPYYYYGMDVWGQGTTVTVSS
VL: B1 VL with G28S, N30S, D50A, N53S, E55Q, T56S, T94V, L96I, G100Q
notes: IgG format
B6: MAdCAM Antibody Table 2 clone 44 (antibody, V domains shown)
VH: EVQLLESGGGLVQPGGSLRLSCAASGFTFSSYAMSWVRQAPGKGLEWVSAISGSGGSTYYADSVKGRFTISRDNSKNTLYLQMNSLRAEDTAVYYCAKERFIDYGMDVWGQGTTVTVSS
VL: DIQMTQSPSSLSASVGDRVTITCQASQDISNYLNWYQQKPGKAPKLLIYAASSLQSGVPSRFSGSGSGTDFTLTISSLQPEDFATYYCQQTYSGWTFGPGTKVDIK
notes: IgG format
B7: MAdCAM Antibody Table 2 clone 53 (antibody, V domains shown)
VH: QVQLVQSGAEVKKPGASVKVSCKASGYTFTSYYMHWVRQAPGQGLEWMGWMNPNSGNTGYAQKFQGRVTMTRDTSTSTVYMELSSLRSEDTAVYYCAREGLGYCTNGVCWNYYGMDVWGQGTLVTVSS
VL: B1 VL with N30S, D50G, N53S, E55Q, T56S, L96Y, G100Q
notes: IgG format
B8: MAdCAM Antibody Table 2 clone 54 (antibody, V domains shown)
VH: QVQLVQSGAEVKKPGSSVKVSCKASGGTLSRYGVSWVRQAPGQGLEWMGGIIPIFGTTNYAQKFQGRVTITADESTSTAYMELSSLRSEDTAVYYCARDRVYYDSSGYPTWYFDLWGRGTLVTVSS
VL: EIVMTQSPATLSVSPGERATLSCRASQSVSSSYLAWYQQKPGQAPRLLIYGASTRATGIPARFSGSGSGTEFTLTISSLQSEDFAVYYCQQYGSSPITFGQGTKVEIK
notes: IgG format
B9: MAdCAM Antibody Table 2 clone 56 (antibody, V domains shown)
VH: EVQLVESGGGLVKPGGSLRLSCAASGFTFSSYWMSWVRQAPGKGLEWVSAIGTGGGTYYAAPVKGRFTISRDDSKNTLYLQMNSLKTEDTAVYYCAREWLVPYYGMDVWGQGTTVTVSS
VL: B1 VL with G28S, N30S, S31R, D50G, E55Q, T56S, L96W, G100Q
notes: IgG format
B10: MAdCAM Antibody Table 2 clone 57 (antibody, V domains shown)
VH: EVQLLESGGGLVQPGGSLRLSCAASGFSVSSNYMSWVRQAPGKGLEWVAGISYDGSSKPYADSVKGRFTISRDNSKNTLYLQMNSLRAEDTAVYYCARSRGIAARPLQHWGQGTLVTVSS
VL: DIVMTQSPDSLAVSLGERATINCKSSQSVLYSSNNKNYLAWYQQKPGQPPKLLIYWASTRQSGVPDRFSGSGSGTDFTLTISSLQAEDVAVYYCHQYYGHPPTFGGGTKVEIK
notes: IgG format
B11: MAdCAM Antibody Table 2 clone 61 (antibody, V domains shown)
VH: QVQLVQSGAEVKKPGASVKVSCKASGDTFTGYYIHWVRQAPGQGLEWMGWINPNSGGTNYAQKFQGRVTMTRDTSTSTVYMELSSLRSEDTAVYYCARSGLWLGSYYGMDVWGQGTLVTVSS
VL: B1 VL with G28T, N30S, S31I, N53T, E55Q, T56S, S91Y, Y92S, T94Y, G100Q
notes: IgG format
B12: MAdCAM Antibody Table 2 clone 62 (antibody, V domains shown)
VH: QVQLVQSGAEVKKPGASVKVSCKASGYTFTSYDINWVRQAPGQGLEWMGWINPNSGTTGYAQKFQGRVTMTRDTSTSTVYMELSSLRSEDTAVYYCARSPYYYYGMDVWGQGTTVTVSS
VL: DIQMTQSPSSLSASVGDRVTITCRASHFISRWVAWYQQKPGKAPKLLIYAASTLQSGVPSRFSGSGSGTDFTLTISSLQPEDFATYYCQQSYSGISFGPGTKVDIK
notes: IgG format
B13: MAdCAM Antibody Table 2 clone 64 (antibody, V domains shown)
VH: EVQLLESGGGLVQPGGSLRLSCAASGFTFSNSDMNWVRQAPGKGLEWVAHIWNDGSQKYYADSVKGRFTISRDNSKNTLYLQMNSLRAEDTAVYYCARDRTDPGYSSAMDVWGQGTTVTVSS
VL: B1 VL with G28D, N30R, S31N, W32Y, A34G, N53S, S91A, Y92T, T94L
notes: IgG format
B14: MAdCAM Antibody Table 2 clone 66 (antibody, V domains shown)
VH: QVQLVQSGAEVKKPGASVKVSCKASGYTFTGHYMHWVRQAPGQGLEWMGIINPSGGSTSYAQKFQGRVTMTRDTSTSTVYMELSSLRSEDTAVYYCARDGAWFGEEYYYGMDVWGQGTTVTVSS
VL: DIQMTQSPSSLSASVGDRVTITCRASQGISNWLAWYQQKPGKAPKLLIYDASNLETGVPSRFSGSGSGTDFTLTISSLQPEDFATYYCQQYYSFPLYTFGQGTKVEIK
notes: IgG format
B15: MAdCAM Antibody Table 2 clone 67 (antibody, V domains shown)
VH: QVQLVQSGAEVKKPGASVKVSCKASGYTFTGYYMHWVRQAPGQGLEWMGMIYPRDGSTSYAQKFQGRVTMTRDTSTSTVYMELSSLRSEDTAVYYCAMTGWGYGMDVWGKGTTVTVSS
VL: B1 VL with S31N, W32Y, N53T, E55Q, T56S, T94A, L96P, G100Q, V104L
notes: IgG format
B16: MAdCAM Antibody Table 2 clone 68 (antibody, V domains shown)
VH: EVQLLESGGGLVQPGGSLRLSCAASGFTFGDYAMSWVRQAPGKGLEWVAVVSYDGTNKYYADSVKGRFTISRDNSKNTLYLQMNSLRAEDTAVYYCAKDICSSTSCYFDLWGRGTLVTVSS
VL: DIQMTQSPSSLSASVGDRVTITCRASQNINNYVNWYQQKPGKAPKLLIYDASNLETGVPSRFSGSGSGTDFTLTISSLQPEDFATYYCQQANSFPPTFGQGTRLEIK
notes: IgG format
B17: MAdCAM Antibody Table 2 clone 69 (antibody, V domains shown)
VH: QVQLVQSGAEVKKPGASVKVSCKASGYTFTSYYMHWVRQAPGQGLEWMGIIDPSGGSTSYAQKFQGRVTMTRDTSTSTVYMELSSLRSEDTAVYYCAREEWSSGGVGYFDYWGQGTLVTVSS
VL: DIQMTQSPSSLSASVGDRVTITCRASQGISSYLAWYQQKPGKAPKLLIYATSSLQTGVPSRFSGSGSGTDFTLTISSLQPEDFATYYCQQTYSIPITFGQGTRLEIK
notes: IgG format
B18: MAdCAM Antibody Table 2 clone 70 (antibody, V domains shown)
VH: QVQLVQSGAEVKKPGASVKVSCKASGYPFTDYYMHWVRQAPGQGLEWMGWIKPNSGDTEYAQKFQGRVTMTRDTSTSTVYMELSSLRSEDTAVYYCARDRFVGKPDYYYYGMDVWGQGTMVTVSS
VL: B17 VL with G28S, S31V, Y32W, T51A, T56S, T91S, S93D, I94T, I96Y, R103K
notes: IgG format
B19: MAdCAM Antibody Table 2 clone 71 (antibody, V domains shown)
VH: QVQLVQSGAEVKKPGASVKVSCKASGYTFTSYYMHWVRQAPGQGLEWMGIINPSGGSTSYAQKFQGRVTMTRDTSTSTVYMELSSLRSEDTAVYYCARDSVAGTGGRYYGMDVWGQGTLVTVSS
VL: B17 VL with S31N, L33F, T51A, T56G, T91S, I94L, I96Y, R103K
notes: IgG format
B20: MAdCAM Antibody Table 2 clone 72 (antibody, V domains shown)
VH: QVQLVQSGAEVKKPGASVKVSCKASGYTFTSYYMHWVRQAPGQGLEWMGVINPIGGTTTYAQKFQGRVTMTRDTSTSTVYMELSSLRSEDTAVYYCASGAPSYYYYGMDVWGQGTLVTVSS
VL: B1 VL with G28S, N30S, W32Y, A34N, D50G, A51T, N53Y, E55A, G100Q
notes: IgG format

These binders were tested against T1, mouse MAdCAM expressed on cells (mouse, UniProt Q61826 22-405) (assay: cell binding).
T1 construct: whole, on cells
T1 sequence (looked up): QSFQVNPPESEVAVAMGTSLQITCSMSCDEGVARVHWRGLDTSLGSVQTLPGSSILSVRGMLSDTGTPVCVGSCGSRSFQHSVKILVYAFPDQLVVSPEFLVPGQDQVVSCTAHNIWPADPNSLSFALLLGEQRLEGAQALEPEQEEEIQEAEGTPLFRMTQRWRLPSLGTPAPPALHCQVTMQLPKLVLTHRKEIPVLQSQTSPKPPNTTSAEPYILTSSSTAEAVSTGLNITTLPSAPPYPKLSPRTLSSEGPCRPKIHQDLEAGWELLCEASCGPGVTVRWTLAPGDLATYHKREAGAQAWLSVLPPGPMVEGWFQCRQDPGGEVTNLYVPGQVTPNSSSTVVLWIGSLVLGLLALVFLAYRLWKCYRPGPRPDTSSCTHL

Binder	binding result
B1	no binding
B2	no binding
B3	no binding
B4	no binding
B5	no binding
B6	no binding
B7	no binding
B8	no binding
B9	no binding
B10	no binding
B11	no binding
B12	no binding
B13	no binding
B14	no binding
B15	no binding
B16	no binding
B17	no binding
B18	no binding
B19	no binding
B20	no binding

These binders were tested against T2, human MAdCAM expressed on cells (human, UniProt Q13477 19-382) (assay: cell binding).
T2 construct: whole, on cells
T2 sequence (looked up): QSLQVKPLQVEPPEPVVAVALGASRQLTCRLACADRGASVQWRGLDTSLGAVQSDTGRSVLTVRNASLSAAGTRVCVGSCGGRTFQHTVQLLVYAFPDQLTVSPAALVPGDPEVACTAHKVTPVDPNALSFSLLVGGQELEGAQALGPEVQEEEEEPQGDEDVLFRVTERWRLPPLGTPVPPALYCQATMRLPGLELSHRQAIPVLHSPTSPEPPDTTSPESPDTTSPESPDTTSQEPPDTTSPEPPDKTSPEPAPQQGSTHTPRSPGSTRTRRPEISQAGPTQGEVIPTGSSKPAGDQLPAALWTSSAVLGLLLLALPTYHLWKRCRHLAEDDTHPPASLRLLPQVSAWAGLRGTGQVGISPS

Binder	binding result
B1	binds
B2	binds
B3	binds
B4	binds
B5	binds
B6	binds
B7	binds
B8	binds
B9	binds
B10	binds
B11	binds
B12	binds
B13	binds
B14	binds
B15	binds
B16	binds
B17	binds
B18	binds
B19	binds
B20	binds
